The source of these data is the supplement of paper PMC9170038.

Data set [1] has as its system MS2 coat protein. In words: apparent KD of MS2 coat protein, switch ON state; designed switch direction (-1 OFF switch, 1 ON switch): -1; higher = weaker reporter binding. The settings on record: FMN input: 0 or 200 uM; Eterna round: R93 (includes R88 designs). In a few lines: (§1)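 Illumina sequencing clusters were used for on-chip transcription of designed RNA switches. Titration with SNAP-549-labelled MS2 coat protein followed, in twofold steps from 0.7 or 1.5 nM to 3 µM in 100 mM Tris-HCl pH 7.5, 80 mM KCl, 4 mM MgCl2, without or with constant ligand. Apparent KD is each design's median of fits to normalised cluster binding curves.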

Data set [2] relates to MS2 coat protein. In words: apparent KD of MS2 coat protein, switch OFF state (with FMN for OFF switches, without FMN for ON switches); designed switch direction (-1 OFF switch, 1 ON switch): -1; higher = weaker reporter binding. The note with it: FMN input: 0 or 200 uM; Eterna round: R93 (includes R88 designs). The procedure, abridged: as §1
Data set [3] deals with MS2 coat protein. In words: apparent KD of MS2 coat protein; designed switch direction (-1 OFF switch, 1 ON switch): 1; higher = weaker reporter binding. In a few lines:
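The apparent KD reported per design is the median over clusters of curve fits to normalised cluster fluorescence. The RNA switches were transcribed on Illumina chips by stalled E. coli RNA polymerase. SNAP-549-labelled MS2 coat protein was titrated from 0.7 or 1.5 nM, doubling up to 3 µM, in Tris-HCl pH 7.5 buffer containing KCl, MgCl2, BSA, DTT, tRNA and Tween-20, with no input, 200 uM small-molecule ligand, or an oligonucleotide input.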

[4] abbreviates: Eterna round: R95, input ligand: FMN 200 uM.
Where [5] appears, read: Eterna round: R95, input ligand: microRNA oligo, concentration not stated.
Setting [6] is: Eterna round: R95, input ligand: none.
[7] abbreviates: input ligand: microRNA oligo, concentration not stated.

As for “AAAAAAAGAGGAUAUACAUGAAAAAUAAAAAUGUAAAAAAAACAUGAGGAUCACCCAUGUAGAAGGCUUAAAAA [Ecx-I 62% 1]”, the “apparent KD of MS2 coat protein” value in the data set with MS2 coat protein [1] stood at 24.6 nM; with MS2 coat protein [2] it was 25.9 nM.
“AAAAAACAUGAGGAUCACCCAUGUAAGGAUAUCGUGCAGAAAAAAAAAAAAAACUGCACGAGAAGGUACAAGGA [Brourd - Exclusion 1 - Sub 1]”: the “apparent KD of MS2 coat protein” value turned out to be 36.1 nM in the data set with MS2 coat protein [1] and 62.7 nM in the data set with MS2 coat protein [2].
On to “AAAAAACAUGAGGAUCACCCAUGUAAGGAUAUCUAAAAUAAAAGAAAAAUAAAGAAAAGGAGAAGGUACAUGCA [JL wbt mod 26]”, for which the “apparent KD of MS2 coat protein” value was determined as 32 nM in the data set with MS2 coat protein [1] and 34.5 nM in the data set with MS2 coat protein [2].
With “AAAAAACAUGAGGAUCACCCAUGUAAGGAUAUCUAAAAUAAAAGAAAAAUAAAGAAAAGGAGAAGGUACAUGGA [JL wbt mod 22]”, the results for the “apparent KD of MS2 coat protein” value in the data set on MS2 coat protein [1] and in the data set with MS2 coat protein [2] were 22.9 nM and 15.6 nM, respectively.
Consider “AAAAAACAUGAGGAUCACCCAUGUAAGGAUAUGACUUAAAUAAAGAAAGAAGAAAUAGUCAGAAGGUACAAAUA [Disincluded (MS2 Riboswitches - States energetically close)]”, for which the entries for the “apparent KD of MS2 coat protein” value in the data set with MS2 coat protein [1] and in the data set on MS2 coat protein [2] were 20.4 nM and 31 nM, respectively.
For “UUGCAGUCAGGUGAGGAUAUCAUGAGUUUAACAUGAGGAUCACCCAUGUGCUGCCUUGCAGCAUAUGAGAAGGCACCUGGCUGCU [JL-ss2-3.03 Brourd Mod] (puzzle: Same State 2)”, the “apparent KD of MS2 coat protein” value with MS2 coat protein [3] (setting [4]) worked out at 132 nM; in the data set with MS2 coat protein [3] (setting [5]), 295 nM; with MS2 coat protein [3] (setting [6]), 535 nM.
In the same order, the values of “UUGCGCUGUCGAGAGGAUAUGCGGUGUUGGACAUGAGGAUCACCCAUGUUAGCGAUAGCAUUACGGUAGAAGGCUCUUCAGCUGC [salish99_ss2_r3_096] (puzzle: Same State 2)” are 23.4 nM, 17 nM and 21.9 nM.
As for “UUGCGGAAUUAAGGAUAUUGAGUACAUAUGUUUAACAUGAGGAUCACCCAUGUGGGUUGCGGUAUCGAGAAGGUAAAUUACUAC [salish99_SSNG2_r04_802] (Eterna round: R96, puzzle: Same State NG 2)”, the entries for the “apparent KD of MS2 coat protein” value with MS2 coat protein [3] (input ligand: FMN 200 uM), with MS2 coat protein [3] (setting [7]) and in the data set on MS2 coat protein [3] (input ligand: none) were 130 nM, 88.8 nM and 105 nM, respectively.
For “UUGCUUCUCGUAGGAUAUGUAGGAUAUUCCUACAUGAGGAUCACCCAUGUUCGCAUGGAAGAAGGACAGAAGGACGAUCACCCU [pwkr ssNG2 2FMN + 1F5.10] (Eterna round: R96, puzzle: Same State NG 2)”, the “apparent KD of MS2 coat protein” value with MS2 coat protein [3] (input ligand: FMN 200 uM) is 330 nM; with MS2 coat protein [3] (setting [7]), 234 nM; with MS2 coat protein [3] (input ligand: none), 271 nM.
With “UUGGUGUAGAUACAGGAUAUGUUGCUCGUAACAUGAGGAUCACCCAUGUAUCUAUGAGAUUAAAUGCAGAAGGGUGCACACCACU [salish99_ss2_r3_087] (puzzle: Same State 2)”, the “apparent KD of MS2 coat protein” value is 39.6 nM in the data set with MS2 coat protein [3] (setting [4]), 341 nM with MS2 coat protein [3] (setting [5]) and 541 nM with MS2 coat protein [3] (setting [6]).
As to “UUGUUUAACGUAGGAUAUCGACCUACAUGAGGAUCACCCAUGUCUUUGUAUAGUUUUUUUUGUUACGAGAAGGACGUUUUGUAU [JR_SSNG2_Sub068] (Eterna round: R96, puzzle: Same State NG 2)”, the results for the “apparent KD of MS2 coat protein” value in the data set with MS2 coat protein [3] (input ligand: FMN 200 uM), in the data set on MS2 coat protein [3] (setting [7]) and with MS2 coat protein [3] (input ligand: none) were 68.6 nM, 140 nM and 170 nM, respectively.
For “UUGUUUCGUCAUUAACAUGAGGAUCACCCAUGUAAAGAACCAGAGGAUAUGCAUGUUUGAUUGUAGCAGAAGGCUGAUUGUUGU [JR_SSNG3_Sub033] (Eterna round: R96, puzzle: Same State NG 3)”, the “apparent KD of MS2 coat protein” value in the data set on MS2 coat protein [3] (setting [7]) turned out to be 42.7 nM.
On the same count and under the same terms, the value for “UUGUUUCGUCAUUAACAUGAGGAUCACCCAUGUAUCGUCUCAAAGGAUAUAUAUGCUUGUUUGCUAUAGAAGGUUGAUUGUUGU [JR_SSNG3_Sub093] (Eterna round: R96, puzzle: Same State NG 3)” was 91.6 nM.
In the case of “UUGUUUUGAAAUUAACAUGAGGAUCACCCAUGUCGUGAGACAGAGGAUAUACAGGAAUGUAGGUAGUAGAAGGCUGUUUAGUGU [JR_SSNG3_Sub099] (Eterna round: R96, puzzle: Same State NG 3)”, the results for the “apparent KD of MS2 coat protein” value in the data set on MS2 coat protein [3] (input ligand: FMN 200 uM), in the data set on MS2 coat protein [3] (setting [7]) and with MS2 coat protein [3] (input ligand: none) were 99.4 nM, 95.6 nM and 142 nM, respectively.
In the same order, the values of “UUGUUUUGUAAUUAACAUGAGGAUCACCCAUGUCUUGGCACAGAGGAUAUACAUGUUUGUUUGUAGUAGAAGGCUGUUUAUUGU [JR_SSNG3_Sub096] (Eterna round: R96, puzzle: Same State NG 3)” are 128 nM, 116 nM and 198 nM.
In the case of “UUUACUUUCAUAGGAUAUCAUGCGAAAAUUGCGUGAGAAGGGUGAACACUGUCUUUCUAAGAGUACAUGAGGAUCACCCAUGUA [SameState NG1 #65] (Eterna round: R96, puzzle: Same State NG 1)”, the “apparent KD of MS2 coat protein” value was determined as 113 nM in the data set on MS2 coat protein [3] (input ligand: FMN 200 uM), 102 nM with MS2 coat protein [3] (setting [7]) and 131 nM in the data set with MS2 coat protein [3] (input ligand: none).
In the same order, the values of “UUUACUUUCAUAGGAUAUCAUGCGAAAAUUGCGUGAGAAGGGUGAAUACUGUCUUUCUAAGAGUACAUGAGGAUCACCCAUGUA [SameState NG1 #64] (Eterna round: R96, puzzle: Same State NG 1)” are 56.9 nM, 45.8 nM and 51.2 nM.
For the sequence “UUUAGAUAGCGAGGAUAUCGCGAGGAUCACCCGUGAGAAGGCGCAGAGCCGAGGAUCACCCGGCUGAUCCUGAGAAGGAGGUCA (Eterna round: R96, puzzle: Same State NG 1)”, the entries for the “apparent KD of MS2 coat protein” value in the data set with MS2 coat protein [3] (input ligand: FMN 200 uM), in the data set on MS2 coat protein [3] (setting [7]) and with MS2 coat protein [3] (input ligand: none) were 92.3 nM, 155 nM and 245 nM, respectively.
With “UUUAGAUCGCGAGGAUAUCGCGAGGAUCACCCGUGAGAAGGCGCAGAGCCGAGGAUCACCCGGCUGAUCCUGAGAAGGAGGUCA (Eterna round: R96, puzzle: Same State NG 1)”, the entries for the “apparent KD of MS2 coat protein” value in the data set on MS2 coat protein [3] (input ligand: FMN 200 uM), in the data set on MS2 coat protein [3] (setting [7]) and in the data set with MS2 coat protein [3] (input ligand: none) were 91.7 nM, 206 nM and 250 nM, respectively.
For the sequence “UUUAGUUGCGCGCAGGAUAUGUAUUAAUAUACAUGAGGAUCACCCAUGUGAGAUCGAAUAGAUCUGCAGAAGGGCGAAUCGCGAC [Laonerce - 27] (puzzle: Same State 2)”, the results for the “apparent KD of MS2 coat protein” value in the data set on MS2 coat protein [3] (setting [4]), with MS2 coat protein [3] (setting [5]) and in the data set on MS2 coat protein [3] (setting [6]) were 52.7 nM, 361 nM and 772 nM, respectively.
In the case of “UUUAGUUGCGGGCAGGAUAUGUAUUAAAAUACAUGAGGAUCACCCAUGUGAGACCAUAAAGGUCUACAGAAGGGCCAAUCGCGAC [Laonerce - 19] (puzzle: Same State 2)”, the entries for the “apparent KD of MS2 coat protein” value in the data set on MS2 coat protein [3] (setting [4]), in the data set with MS2 coat protein [3] (setting [5]) and in the data set on MS2 coat protein [3] (setting [6]) were 14.9 nM, 89 nM and 88.1 nM, respectively.
Regarding “UUUAGUUGCGGGCAGGAUAUGUAUUAAAAUACAUGAGGAUCACCCAUGUGAGAUCAUAAAGAUCUACAGAAGGGCCAAUCGCGAC [Laonerce - 18] (puzzle: Same State 2)”, the results for the “apparent KD of MS2 coat protein” value with MS2 coat protein [3] (setting [4]), with MS2 coat protein [3] (setting [5]) and in the data set with MS2 coat protein [3] (setting [6]) were 13.4 nM, 69.4 nM and 91.6 nM, respectively.
In the same order, the values of “UUUAGUUGCGGGCAGGAUAUGUAUUAAAAUACAUGAGGAUCACCCAUGUGAGGUCAUAAAGACCUGCAGAAGGGCCAAUCGCGAC [Laonerce - 17] (puzzle: Same State 2)” are 11.5 nM, 86.8 nM and 48.3 nM.
“UUUAUAUUCAGAGGAUAUUGAUGUUGUAUUUUACAAGAAGGCUGAUUGUUUUGUAAUGUUAUUAAACAUGAGGAUCACCCAUGU [JR_SSNG1_Sub013] (Eterna round: R96, puzzle: Same State NG 1)”: the “apparent KD of MS2 coat protein” value was found to be 19.7 nM in the data set on MS2 coat protein [3] (input ligand: FMN 200 uM), 22.5 nM in the data set with MS2 coat protein [3] (setting [7]) and 27.3 nM in the data set on MS2 coat protein [3] (input ligand: none).
Take “UUUCUACAUGAGGAUCACCCAUGUCAACAAAGUCGAGGAUAUGGGCAUAUUAUCUUAUUUCCAGAAGGCGAUUUCU [salish99_ss1_r3_092] (puzzle: Same State 1)”: the “apparent KD of MS2 coat protein” value in the data set with MS2 coat protein [3] (setting [5]) was found to be 101 nM.
As for “UUUGCAUGACGAGGAUAUCAUUUAUUUCUUGAUUGAGAAGGCGUUCUUUUUAAUACCUAACAUGAGGAUCACCCAUGUGACAGU [JR_SSNG1_Sub047] (Eterna round: R96, puzzle: Same State NG 1)”, in the data set on MS2 coat protein [3] (setting [7]), the “apparent KD of MS2 coat protein” value was 13.1 nM.
Consider “UUUGCAUGACGAGGAUAUCAUUUAUUUCUUGAUUGAGAAGGCGUUCUUUUUACUACCUAACAUGAGGAUCACCCAUGUGACAGU [JR_SSNG1_Sub048] (Eterna round: R96, puzzle: Same State NG 1)”, for which the “apparent KD of MS2 coat protein” value with MS2 coat protein [3] (setting [7]) came to 11.3 nM.
Turning to “UUUGGGUGGCUGGAGGAUAUUCUUGUGGUUACAUGAGGAUCACCCAUGUGUCGCGCGGUACGCGAGGAGAAGGCUGGCGGCCGUU (puzzle: Same State 2)”, the “apparent KD of MS2 coat protein” value with MS2 coat protein [3] (setting [5]) came to 223 nM.
As for “UUUUUGUUCCGAGGAUAUCCUUUUUUCUUACAUGAGGAUCACCCAUGUAAAGGGAUUGAGUUGUAGGAGAAGGCGGUUUUGUUU [JR_SSNG2_Sub061] (Eterna round: R96, puzzle: Same State NG 2)”, the “apparent KD of MS2 coat protein” value was found to be 16.4 nM with MS2 coat protein [3] (input ligand: FMN 200 uM), 26.1 nM in the data set on MS2 coat protein [3] (setting [7]) and 26.2 nM with MS2 coat protein [3] (input ligand: none).
